The labels stand for the following.
B1: Hairpin Ribozyme (parent)
chain: GUCCUCUUUCACGUGCGCGUGAAAGAGAGAAGUGAACCAGAGAAACACACGUUGUGGUAUAUUACCUGGUA

The results in this text go back to the RNAGym collection of RNA variant scans (doi:10.7554/elife.80360).

Variants of B1 are the subject of the data set. Description: self-cleavage, relative activity (ratio to wild type); higher = more cleavage; co-transcriptional.
With GUCCUCUUUCACGUGCGCGUGAAAGAGAGAUGUGAACCAGAGAAACACACGUUGUAGUAUAUUACCUGGUA [A31U G56A], the self-cleavage was 0.0543.

GUCCUCUUUCACGUGCACGUGAAAGAGAGAAGUAAACCAGAGAAACACACGUUGUGGUAUAUUACCUGGUA [G17A G34A]: the self-cleavage was 1.26.

Consider GUCCUCUUUCACGUGCGCGUGAAAGAGCGAAGUGAACCAGAGAAACACACGUUGUGGUAUGUUACCUGGUA [A28C A61G], for which the self-cleavage worked out at 0.1. The figure for GUCCUCAUUCACGUGCGCGAGAAAGAGAGAAGUGAACCAGAGAAACACACGUUGUGGUAUAUUACCUGGUA [U7A U20A] is 0.723. Regarding GUCCUCUUUCACGUGCGCGUGAAAGAGAGGAGAGAACCAGAGAAACACACGUUGUGGUAUAUUACCUGGUA [A30G U33A], the self-cleavage came out at 0.0512. For GUCCUCUUUCACGUGCGCGUGAAAGAGAGCAGUGAACCAGAGAAACACACGUUGUGGUAUAUUACCUGGCA [A30C U70C], the self-cleavage was found to be 0.127. Consider UUCCUCUUUCACGUGCGCGUGAAAGAGAGAAGUGAACCAGAGAAACACACGUUGUGGUAAAUUACCUGGUA [G1U U60A], for which the self-cleavage stood at 0.195.

Regarding GUCCUCUUUCACGUGCGCGUGAAAGAGAAAAGUGAACCAGAGAAACACACGUUGUGGUAUAUUACCGGGUA [G29A U67G], the self-cleavage came out at 0.0868. Take GUCCUCUUUCACGUGCGCGUGAAAGAGAGAAGUGAACCAGAGAAACACACGUUGUGGUGCAUUACCUGGUA [A59G U60C]: the self-cleavage is 0.238.

Take GUCCUCUGUCACGUGCGCGUGAAAGAGAGAAGUGGACCAGAGAAACACACGUUGUGGUAUAUUACCUGGUA [U8G A35G]: the self-cleavage was determined as 0.667. Take GUCCUCUUUCACGUGCGCGUGAAAGAGAUAAGUGAACCAGAGAAACACACGCUGUGGUAUAUUACCUGGUA [G29U U52C]: the self-cleavage came out at 0.178. Turning to GUCCUCUUUCACGUGCGCGUGAAAGAGAUAAGUGAACCAGAGAAACACACGUUGUGGAAUAUUACCUGGUA [G29U U58A], the self-cleavage is 0.154.

Take GUCGUCUUUCACGUGCGCGUGAAAGAGCGAAGUGAACCAGAGAAACACACGUUGUGGUAUAUUACCUGGUA [C4G A28C]: the self-cleavage was 0.172. The figure for GUCCUCUUUCACGUGCGCGUGAAAGAGAGAAGGGAACCAGAGAAACACACGUUGUUGUAUAUUACCUGGUA [U33G G56U] is 0.244; for GUCCUCUUUCACGUGCGCGUGAAAGAGAGAAGUGAGCCAGAGAAACACACGUUGUGGUAGAUUACCUGGUA [A36G U60G] it is 0.62; for GUCCUCUUUUACGUGCGCGUGAAAGAGAGAAGUGAACCAGAGAAACACACGUUGUGGUAUAUUACCUGGCA [C10U U70C] it is 0.637. Consider GACCUCUUUCACGUGCGCGUGAAACAGAGAAGUGAACCAGAGAAACACACGUUGUGGUAUAUUACCUGGUA [U2A G25C], for which the self-cleavage came to 0.171.

Take GUCCUCUUCCACGUGCGCGUGAAAGAGAGAAGUGAACCAGAGAAACACACGUUGUGGUAUAUUACCUGGUG [U9C A71G]: the self-cleavage turned out to be 0.933.

On to GUCCUCUUUCACGUGUGCGUGAACGAGAGAAGUGAACCAGAGAAACACACGUUGUGGUAUAUUACCUGGUA [C16U A24C], for which the self-cleavage worked out at 1.12. As for GUCCUCUUCCACGUGCGCGUGAAAGAGAGAAGUGAACCAGAGAAACUCACGUUGUGGUAUAUUACCUGGUA [U9C A47U], the self-cleavage came to 0.178. On to GUCCUCUUUCACGUGCGCGUGAAAGAGAGAAGUGAGCCAGAGAAACACACGUGGUGGUAUAUUACCUGGUA [A36G U53G], for which the self-cleavage is 0.507.

As for GUCCUCUUUCACGUGCGCGUGAAAGAGGGAAGUGAACCAGAGAAACACACGUUGUGGUAUAUUACCUGGUC [A28G A71C], the self-cleavage was determined as 1.26. In the case of GUCCUCUGUCACGUGCGCGUGAAAGAGGGAAGUGAACCAGAGAAACACACGUUGUGGUAUAUUACCUGGUA [U8G A28G], the self-cleavage came to 0.843. For GUCCUCUUUCACGUGCACGUGAAAGAGAGAAGUGAACCAGAGAAACACACGUUGUGGUAUUUUACCUGGUA [G17A A61U], the self-cleavage is 0.208. Take GUCCUCUUUCACGUGCGCGUGAAAGAGAGAAGUGAACCAGACAAACACACGUUGUGGUAUAUUACCUUGUA [G42C G68U]: the self-cleavage was determined as 0.138. Consider GUCCUCUUUCACGUGCGCGUGGAAGUGAGAAGUGAACCAGAGAAACACACGUUGUGGUAUAUUACCUGGUA [A22G A26U], for which the self-cleavage turned out to be 0.528. Take GUCCUCUUUCACGUGCGCGUGAAAGAGAGGAGUGAACCACAGAAACACACGUUGUGGUAUAUUACCUGGUA [A30G G40C]: the self-cleavage was 0.131. The figure for GUCGUCUUUCACGUUCGCGUGAAAGAGAGAAGUGAACCAGAGAAACACACGUUGUGGUAUAUUACCUGGUA [C4G G15U] is 0.185; for GUCCUCUUUCACGUGCGCGUGAAAGAGAAAAGUGAACCAGAGAAACACACGUUGUGGUAUAUUACUUGGUA [G29A C66U] it is 0.194; for GUCCUCUUUCACGUGCGCGUCAAAGAGAGAAGUGAACCAGAGAAACACAGGUUGUGGUAUAUUACCUGGUA [G21C C50G] it is 0.278. For GUCCUCUUUCACGUGCGCGUGAAAGAGAGAAGUGAACCAGAGAGACACACGUUGUGGUAUAUUACCUGGCA [A44G U70C], the self-cleavage is 0.262. To GUCCUCUUUCACGUGCGCGUGAAAGAGGGAAGUGAACCAGAGAAACAUACGUUGUGGUAUAUUACCUGGUA [A28G C48U] belongs 0.276; to GUCCUCUUUCACGUGCGCGAGAAAGAGAGAAGUGAUCCAGAGAAACACACGUUGUGGUAUAUUACCUGGUA [U20A A36U], 0.497. In the case of GUCCUCUUUCACGUGAGCGUGAAAGAGAGAAGUGAACCGGAGAAACACACGUUGUGGUAUAUUACCUGGUA [C16A A39G], the self-cleavage is 0.243.

In the case of GUCCUCUUUCACGUGCGCGUGAAAGAGAGAUGUGAUCCAGAGAAACACACGUUGUGGUAUAUUACCUGGUA [A31U A36U], the self-cleavage was 0.121. Consider GUCCUCUUUCACGUGCGCGUGAAAUAGAGAAGUGAACCAGAGAAACACACGUUGUGGUAAAUUACCUGGUA [G25U U60A], for which the self-cleavage came to 0.391. To GUCCUCUUUCACGUGCGCCUGAAAGAGAGGAGUGAACCAGAGAAACACACGUUGUGGUAUAUUACCUGGUA [G19C A30G] belongs 0.187; to GUCCUCUUUCACGUACGCGUGAAAGAGAGAAGUGAACCAGAGAAACACACGUAGUGGUAUAUUACCUGGUA [G15A U53A], 0.862.
